Measurements from publication PMC7360973.

T1: Human heat shock transcription factor 1 (Hsf1), wild type (human), Q00613
T1 chain: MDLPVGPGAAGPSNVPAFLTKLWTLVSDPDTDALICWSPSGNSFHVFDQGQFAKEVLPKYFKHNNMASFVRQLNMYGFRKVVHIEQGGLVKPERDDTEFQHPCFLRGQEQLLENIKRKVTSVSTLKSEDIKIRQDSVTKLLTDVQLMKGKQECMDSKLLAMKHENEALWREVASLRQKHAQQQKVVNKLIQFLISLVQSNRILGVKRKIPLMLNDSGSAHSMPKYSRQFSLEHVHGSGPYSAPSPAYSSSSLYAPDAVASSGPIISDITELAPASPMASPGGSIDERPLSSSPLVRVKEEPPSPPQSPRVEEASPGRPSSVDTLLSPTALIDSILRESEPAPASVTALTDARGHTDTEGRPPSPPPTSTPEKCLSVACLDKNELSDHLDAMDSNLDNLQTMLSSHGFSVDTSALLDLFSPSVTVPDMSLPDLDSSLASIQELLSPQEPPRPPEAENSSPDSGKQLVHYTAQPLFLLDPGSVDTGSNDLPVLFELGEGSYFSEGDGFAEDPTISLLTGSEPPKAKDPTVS

T2: Hsf1 wild type expressed from pIRES‐HSF1_hrGFP in cells (human), Q00613
T2 chain: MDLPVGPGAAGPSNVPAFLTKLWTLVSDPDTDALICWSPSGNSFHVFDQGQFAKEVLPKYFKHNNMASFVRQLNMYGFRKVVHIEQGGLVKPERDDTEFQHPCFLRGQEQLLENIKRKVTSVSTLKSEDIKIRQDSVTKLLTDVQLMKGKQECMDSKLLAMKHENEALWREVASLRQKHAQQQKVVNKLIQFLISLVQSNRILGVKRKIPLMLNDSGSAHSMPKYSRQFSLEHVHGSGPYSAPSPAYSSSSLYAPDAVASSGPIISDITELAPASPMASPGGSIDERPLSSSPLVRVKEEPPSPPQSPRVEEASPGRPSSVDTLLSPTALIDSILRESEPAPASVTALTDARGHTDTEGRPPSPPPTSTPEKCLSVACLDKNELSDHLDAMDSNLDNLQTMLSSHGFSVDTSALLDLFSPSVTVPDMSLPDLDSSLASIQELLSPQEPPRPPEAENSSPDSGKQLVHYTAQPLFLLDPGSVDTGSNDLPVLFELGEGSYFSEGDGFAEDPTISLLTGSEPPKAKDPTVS


Tests used:
Details in all cases: remark: other sources report otherwise
[1] = biological target: T1, Human heat shock transcription factor 1 …; assay: SEC + native gel or EMSA; trimer-to-monomer ratio of freshly purified Hsf1 in the absence of heat shock, by gel filtration (Superdex 200) and BN-PAGE
[2] = biological target: T1, Human heat shock transcription factor 1 …; assay: native gel or EMSA; blue-native PAGE (8% gel, on ice) of purified Hsf1 wild type or variants, also after 10 min at 4–42°C (5 μM protein); Coomassie stain or immunoblot with Hsf1 antiserum
[3] = biological target: T2, Hsf1 wild type expressed from …; assay: native gel or EMSA; blue-native PAGE of lysates (15 μg total protein) of transfected HSF1−/− MEFs, immunoblot with Hsf1 antiserum

stoichiometry N [1]	stoichiometry N [2]	stoichiometry N [3]	Binder
3	3		Human heat shock transcription factor 1 (Hsf1), wild type, Q00613 1-529 (natural protein) MDLPVGPGAAGPSNVPAFLTKLWTLVSDPDTDALICWSPSGNSFHVFDQGQFAKEVLPKYFKHNNMASFVRQLNMYGFRKVVHIEQGGLVKPERDDTEFQHPCFLRGQEQLLENIKRKVTSVSTLKSEDIKIRQDSVTKLLTDVQLMKGKQECMDSKLLAMKHENEALWREVASLRQKHAQQQKVVNKLIQFLISLVQSNRILGVKRKIPLMLNDSGSAHSMPKYSRQFSLEHVHGSGPYSAPSPAYSSSSLYAPDAVASSGPIISDITELAPASPMASPGGSIDERPLSSSPLVRVKEEPPSPPQSPRVEEASPGRPSSVDTLLSPTALIDSILRESEPAPASVTALTDARGHTDTEGRPPSPPPTSTPEKCLSVACLDKNELSDHLDAMDSNLDNLQTMLSSHGFSVDTSALLDLFSPSVTVPDMSLPDLDSSLASIQELLSPQEPPRPPEAENSSPDSGKQLVHYTAQPLFLLDPGSVDTGSNDLPVLFELGEGSYFSEGDGFAEDPTISLLTGSEPPKAKDPTVS
		3	Hsf1 wild type expressed from pIRES‐HSF1_hrGFP in cells, Q00613 1-529 (natural protein) MDLPVGPGAAGPSNVPAFLTKLWTLVSDPDTDALICWSPSGNSFHVFDQGQFAKEVLPKYFKHNNMASFVRQLNMYGFRKVVHIEQGGLVKPERDDTEFQHPCFLRGQEQLLENIKRKVTSVSTLKSEDIKIRQDSVTKLLTDVQLMKGKQECMDSKLLAMKHENEALWREVASLRQKHAQQQKVVNKLIQFLISLVQSNRILGVKRKIPLMLNDSGSAHSMPKYSRQFSLEHVHGSGPYSAPSPAYSSSSLYAPDAVASSGPIISDITELAPASPMASPGGSIDERPLSSSPLVRVKEEPPSPPQSPRVEEASPGRPSSVDTLLSPTALIDSILRESEPAPASVTALTDARGHTDTEGRPPSPPPTSTPEKCLSVACLDKNELSDHLDAMDSNLDNLQTMLSSHGFSVDTSALLDLFSPSVTVPDMSLPDLDSSLASIQELLSPQEPPRPPEAENSSPDSGKQLVHYTAQPLFLLDPGSVDTGSNDLPVLFELGEGSYFSEGDGFAEDPTISLLTGSEPPKAKDPTVS
